These results are taken from PMC6224480, “Insights into Kinesin-1 Activation from the Crystal Structure of KLC2 Bound to JIP3” (Structure(London, England:1993), 2018).

*: point of attachment. FITC = O=C1OC2(c3ccc(O)cc3Oc3cc(O)ccc32)c2ccc(NC(=S)*)cc21

Conditions in all cases: both partners purified
The target in assay [1] is T1, KLC2^TPR-myc (wild type) (murine, UniProt O88448 190-479).
T1 construct: kinesin light chain 2 (KLC2), murine, TPR domain, residues 191-480; also called KLC2^TPR-myc protein; source: E. coli BL21(DE3) Rosetta, purified (His-trap, ULP1 cleavage, SEC); not shown: His6-SUMO, N-terminal, cleaved
Description: fluorescence polarisation; FITC-LFP peptide (300 nM) with 2-fold dilutions of KLC2^TPR-myc; 0.1 M NaCl, 25 mM HEPES, 5 mM MgCl2, 1 mM TCEP, pH 7.5; 1 hour, room temperature; fluorescence anisotropy. For orientation: In fluorescence polarisation assays a small probe gives low polarisation when free and higher when bound to something large.

For assay [2], the target named is T1, KLC2^TPR-myc (wild type). The assay can be described thus: fluorescence polarisation; competition: FITC-LFP peptide (300 nM) and KLC2^TPR-myc fixed at 21 μM, 2-fold serial dilutions of unlabelled CSTN-WD1 peptide or Trp-JIP3^LZ; 0.1 M NaCl, 25 mM HEPES, 5 mM MgCl2, 1 mM TCEP, pH 7.5; competitive inhibition model.
The target in assay [3] is KLC2^TPR-myc third TPR1 mutant, printed as L220Y in Table S2 (mouse, UniProt O88448 191-480). The assay can be described thus: ITC; FITC-CSTN-WD2 peptide as titrant (380 uM) into wild-type or mutant KLC2^TPR-myc (44-50 uM) in the cell; 25 C; 0.1 M NaCl, 25 mM HEPES, 1 mM TCEP, pH 7.5; 2-3 experiments globally fitted with the model A + B -> AB; apparent stoichiometry Napp. A general note: Isothermal titration calorimetry measures the heat released or taken up as one component is titrated into another.

Assay [4] concerns the target T2, KLC2^TPR-myc Gln^223Lys mutant (murine, UniProt O88448 190-479, Gln^223Lys).
T2 construct: kinesin light chain 2 (KLC2), murine, TPR domain, residues 191-480; source: E. coli BL21(DE3) Rosetta, purified (His-trap, ULP1 cleavage, SEC); not shown: His6-SUMO, N-terminal, cleaved
The assay can be described thus: ITC; wild-type or mutant KLC2^TPR-myc (44-50 μM) in the cell; Trp-JIP3^LZ (dimer 297-330 μM) or FITC-CSTN-WD2 peptide (380 μM) as titrant; 0.1 M NaCl, 25 mM HEPES, 1 mM TCEP, pH 7.5.

Assay [5] deals with T3, KLC2^TPR-myc Tyr^208Ala mutant (murine, UniProt O88448 190-479, Tyr^208Ala).
T3 construct: kinesin light chain 2 (KLC2), murine, TPR domain, residues 191-480; source: E. coli BL21(DE3) Rosetta, purified (His-trap, ULP1 cleavage, SEC); not shown: His6-SUMO, N-terminal, cleaved
The assay is described as above.

Assay [6] deals with T4, KLC2^TPR-myc Thr^200Asp mutant (murine, UniProt O88448 190-479, Thr^200Asp).
T4 construct: kinesin light chain 2 (KLC2), murine, TPR domain, residues 191-480; source: E. coli BL21(DE3) Rosetta, purified (His-trap, ULP1 cleavage, SEC); not shown: His6-SUMO, N-terminal, cleaved
Described as above.

In assay [7] the target is T1, KLC2^TPR-myc (wild type). Described as above.

T1 sequence (O88448 190-479): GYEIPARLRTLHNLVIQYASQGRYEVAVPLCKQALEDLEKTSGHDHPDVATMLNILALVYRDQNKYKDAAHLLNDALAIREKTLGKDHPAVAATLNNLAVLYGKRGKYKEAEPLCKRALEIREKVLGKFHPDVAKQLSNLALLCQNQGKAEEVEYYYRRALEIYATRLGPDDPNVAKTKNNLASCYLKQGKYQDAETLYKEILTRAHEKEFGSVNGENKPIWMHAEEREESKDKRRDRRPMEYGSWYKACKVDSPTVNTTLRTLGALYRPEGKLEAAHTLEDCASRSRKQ
Chain of KLC2^TPR-myc third TPR1 mutant, printed as L220Y in Table S2 (O88448 other isoform, or with tags, fused parts or gaps L220Y): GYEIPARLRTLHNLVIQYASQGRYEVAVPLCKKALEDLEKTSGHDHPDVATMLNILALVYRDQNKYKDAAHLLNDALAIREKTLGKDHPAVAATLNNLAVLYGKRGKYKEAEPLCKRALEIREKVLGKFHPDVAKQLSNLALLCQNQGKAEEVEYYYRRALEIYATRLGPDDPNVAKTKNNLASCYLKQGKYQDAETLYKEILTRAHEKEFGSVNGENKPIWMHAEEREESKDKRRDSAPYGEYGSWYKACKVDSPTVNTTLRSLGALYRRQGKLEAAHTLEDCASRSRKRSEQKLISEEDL
T3 sequence (O88448 other isoform, or with tags, fused parts or gaps Tyr^208Ala | Tyr^208Ala | mutant): as the sequence (O88448 190-479) above, with Y18A counted along it
T4 sequence (O88448 other isoform, or with tags, fused parts or gaps Thr^200Asp | Thr^200Asp | mutant): as the sequence (O88448 190-479) above, with T10D counted along it
T2 sequence (O88448 other isoform, or with tags, fused parts or gaps Gln^223Lys | Gln^223Lys | mutant): as the sequence (O88448 190-479) above, with Q33K counted along it

B1: FITC-labeled KLC2 LFP motif peptide (FITC-DSLDDLFPNEDEQS-COOH) (peptide)
peptide: {FITC}-DSLDDLFPNEDEQS-OH
notes: LFP motif (KLC2 residues 167-169) of the acidic linker of kinesin light chain 2; also called FITC-LFP peptide; FITC-labelled LFP-motif peptide; source: synthetic peptide, bought: Biomatik
As a reminder, the Kd is the concentration at which binding is half-saturated. In the assay with KLC2^TPR-myc (wild type) [1], B1 returned a dissociation constant Kd of 37 µM.

B2: N-terminally acetylated CSTN-WD1 peptide (Ac-GKENEMDWDDSALTITVN-COOH) (peptide)
peptide: Ac-GKENEMDWDDSALTITVN-OH
notes: tryptophan-acidic motif WD1 of calsyntenin-1; also called calsyntenin-1 peptide; tryptophan-acidic peptide; source: synthetic peptide (Peptide Synthesis Laboratory, Francis Crick Institute, UK)
As usually defined, the Ki is a measure of affinity in units of concentration, obtained from inhibition or displacement. For B2, the Ki in the assay with KLC2^TPR-myc (wild type) [2] is 11.3 µM.

B3: FITC-labeled CSTN(WD2) peptide (FITC-TRQLEWDDSTL-COOH) (peptide)
peptide: {FITC}-TRQLEWDDSTL-OH
notes: tryptophan-acidic peptide (WD2 motif) derived from calsyntenin-1; also called FITC-CSTN-WD2 peptide; source: synthetic peptide; bought: Biomatik
For orientation: stoichiometry N means a count of units in the complex or per binding partner. B3: in assay [3], the Ka worked out at 739000 M⁻¹ and the “stoichiometry N” value turned out to be 0.71.

B4: FITC-labeled CSTN(WD2) peptide (FITC-TRQLEWDDSTL-COOH) (peptide)
peptide: {FITC}-TRQLEWDDSTL-OH
notes: tryptophan-acidic motif WD2 of calsyntenin-1; also called FITC-CSTN-WD2 peptide; tryptophan-acidic cargo peptide; source: synthetic peptide, bought: Biomatik
Consider B4, for which the “stoichiometry N” value (in assay [4]; in assay [5]; in assay [6]; with KLC2^TPR-myc (wild type) [7]) was around 0.7 in each case.
